Here are results for eleven substances from US20240368668A1, “SUBSTRATES AND BIOMARKERS OF ADAMTS7” (The Broad Institute, Inc., priority 2021, published 2024).

For one test, the target named is T1, mouse ADAMTS7 (Mus musculus, UniProt Q68SA9, E373Q).
T1 construct: Full-length mouse Adamts7 1-1857 (Uniprot Q68SA9, WT or E373Q catalytic mutant); expressed in transfected cells; host or cells: Human Coronary Artery Smooth Muscle Cells (HCA-SMC, Lonza), adenovirus 50 MOI
T1 sequence (Q68SA9 221-1657 E373Q): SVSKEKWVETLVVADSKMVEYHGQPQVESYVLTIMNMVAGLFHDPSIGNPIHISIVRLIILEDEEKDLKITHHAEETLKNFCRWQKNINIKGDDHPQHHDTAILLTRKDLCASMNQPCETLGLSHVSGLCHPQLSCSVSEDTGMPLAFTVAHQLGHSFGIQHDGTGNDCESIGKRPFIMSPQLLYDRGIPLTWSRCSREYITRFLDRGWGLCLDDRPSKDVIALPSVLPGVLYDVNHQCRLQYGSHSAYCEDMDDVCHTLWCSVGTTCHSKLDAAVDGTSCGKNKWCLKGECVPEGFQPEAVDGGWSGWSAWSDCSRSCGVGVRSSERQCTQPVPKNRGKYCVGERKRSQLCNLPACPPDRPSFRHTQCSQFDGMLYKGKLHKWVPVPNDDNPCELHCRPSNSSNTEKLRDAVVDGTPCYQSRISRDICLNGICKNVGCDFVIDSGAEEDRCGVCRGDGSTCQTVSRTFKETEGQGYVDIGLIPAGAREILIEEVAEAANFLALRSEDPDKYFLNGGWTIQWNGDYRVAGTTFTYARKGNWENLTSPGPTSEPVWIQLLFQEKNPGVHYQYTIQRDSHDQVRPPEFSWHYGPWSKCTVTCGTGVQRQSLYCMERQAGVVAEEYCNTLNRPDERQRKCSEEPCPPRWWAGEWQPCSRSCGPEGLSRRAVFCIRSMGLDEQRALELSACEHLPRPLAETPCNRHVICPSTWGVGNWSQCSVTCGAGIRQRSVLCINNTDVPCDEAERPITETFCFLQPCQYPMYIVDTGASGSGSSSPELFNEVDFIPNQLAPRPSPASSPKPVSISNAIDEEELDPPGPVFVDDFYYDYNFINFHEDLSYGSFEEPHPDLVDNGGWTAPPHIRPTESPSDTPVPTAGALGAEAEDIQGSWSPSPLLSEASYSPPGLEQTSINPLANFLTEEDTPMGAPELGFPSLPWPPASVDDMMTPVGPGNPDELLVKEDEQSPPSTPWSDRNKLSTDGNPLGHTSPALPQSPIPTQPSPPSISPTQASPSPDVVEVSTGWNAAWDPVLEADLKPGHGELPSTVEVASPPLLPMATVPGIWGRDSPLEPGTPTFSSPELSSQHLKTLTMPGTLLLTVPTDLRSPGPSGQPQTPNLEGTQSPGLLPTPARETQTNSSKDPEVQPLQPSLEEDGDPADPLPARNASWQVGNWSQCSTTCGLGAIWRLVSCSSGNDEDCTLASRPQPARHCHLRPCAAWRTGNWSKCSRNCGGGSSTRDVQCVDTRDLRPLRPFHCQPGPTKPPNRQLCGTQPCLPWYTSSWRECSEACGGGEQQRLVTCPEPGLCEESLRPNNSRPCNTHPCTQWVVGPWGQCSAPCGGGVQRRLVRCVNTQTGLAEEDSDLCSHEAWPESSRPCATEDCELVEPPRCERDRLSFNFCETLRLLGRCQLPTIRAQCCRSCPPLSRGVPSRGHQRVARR
Kind of test: TMT10 TAILS N-terminomics, SMC2 experiment (process replicates, trypsin/AspN digest). Format: cell-based. Conditions: SMC2_TAILS HC; log fold change of N-terminal peptide, Ad-mADAMTS7 EQ over Luc. The method, boiled down: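 Full-length mouse ADAMTS7 (WT or E373Q mutant, C-terminal 3xFLAG) or luciferase was transduced via adenovirus, 50 MOI, into HCA-SMC (SMC1, SMC2) or HUVEC. SMC1: pooled media, technical triplicates 400 ug; SMC2: process triplicates 300 ug; HUVEC: process triplicates 200 ug, bFGF2 10 ng/ml.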
“VCAN_3367 (FKNSSSAK; listed as Homo sapiens)”: the logFC.mEQ.over.Luc is recorded as −0.72.
As to “VIM_276 (YESVAAKNLQ; listed as Homo sapiens)”, the logFC.mEQ.over.Luc came out at 0.06.
On the same count and under the same terms, with “VIM_322 (QVQSLTCEV; listed as Homo sapiens)” the figure was −0.10; with “ZSCAN4_25 (FQQSQGPAVQR; listed as Homo sapiens)”, −0.09.

Still in this test, the particulars now being: log fold change, ADAMTS7 EQ over luciferase.
The substance “TG_1017 (GASALLR; listed as Homo sapiens)” registered a logFC.mEQ.over.Luc of 1.03.
Take “THBS1_972 (QNDPNWVVR; listed as Homo sapiens)”: the logFC.mEQ.over.Luc is on record as −0.04.
In turn, “TLN1_1501 (HTSALCNSCR; listed as Homo sapiens)” displayed a logFC.mEQ.over.Luc of −0.17.
“TMEM132A_52 (LLDAPEHFR; listed as Homo sapiens)” displayed a logFC.mEQ.over.Luc of −0.30.
Still for that read-out and setting: the same measure for “VASN_138 (HIQPGAFDTLDR; listed as Homo sapiens)”: 0.19; for “VASP_229 (AIAGAKLR; listed as Homo sapiens)”: −0.08; for “VIM_433 (LVDTHSKR; listed as Homo sapiens)”: 0.12.
